Reference: publication PMC8263624, “Asymmetric reconstruction of mammalian reovirus reveals interactions among RNA, transcriptional factor µ2 and capsid proteins” (Nature Communications, 2021)

B1: mRNA capping protein λ2 (enzyme)
chain: MANVWGVRLADSLSSPTIETRTRQYTLHDLCSDLDANPGREPWKPLRNQRTNNIVAVQLFRPLQGLVLDTQLYGFPGAFDDWERFMREKLRVLKYEVLRIYPISNYSNEHVNVFVANALVGAFLSNQAFYDLLPLLIINDTMIGDLLGTGASLSQFFQSHGDVLEVAAGRKYLQMENYSNDDDDPPLFAKDLSDYAKAFYSDTYEVLDRFFWTHDSSAGVLVHYDKPTNGHHYLLGTLTQMVSAPPYIINATDAMLLESCLEQFSANVRARPAQPVTRLDQCYHLRWGAQYVGEDSLTYRLGVLSLLATNGYQLARPIPRQLTNRWLSSFVSQIMSDGVNETPLWPQERYVQIAYDSPSVVDGATQYGYVRKNQLRLGMRISALQSLSDTPSPVQWLPQYTIDQAAMDEGDLMVSRLTQLPLRPDYGNIWVGDALSYYVDYNRSHRVVLSSELPQLPDTYFDGDEQYGRSLFSLARKIGDRSLVKDTAVLKHAYQAIDPNTGKEYLRSRQSVAYFGASAGHSGADQPLVIEPWIQGKISGVPPPSSVRQFGYDVARGAIVDLARPFPSGDYQFVYSDVDQVVDGHDDLSISSGLVESLLSSCMHATAPGGSFVVKINFPTRPVWHYIEQKILPNITSYMLIKPFVTNNVELFFVAFGVHQHSSLTWTSGVYFFLVDHFYRYETLSTISRQLPSFGYVDDGSSVTGIETISIENPGFSNMTQAARIGISGLCANVGNARKSIAIYESHGARVLTITSRRSPASARRKSRLRYLPLIDPRSLEVQARTILPADPVLFENVSGASPHVCLTMMYNFEVSSAVYDGDVVLDLGTGPEAKILELIPATSPVTCVDIRPTAQPSGCWNVRTTFLELDYLSDGWITGVRGDIVTCMLSLGAAAAGKSMTFDAAFQQLIKVLSKSTANVVLVQVNCPTDVVRSIKGYLEIDSTNKRYRFPKFGRDEPYSDMDALEKICRTAWPNCSITWVPLSYDLRWTRLALLESTTLSSASIRIAELMYKYMPIMRIDIHGLPMEKRGNFIVGQNCSLVIPGFNAQDVFNCYFNSALAFSTEDVNAAMIPQVSAQFDATKGEWTLDMVFSDAGIYTMQALVGSNANPVSLGSFVVDSPDVDITDAWPAQLDFTIAGTDVDITVNPYYRLMTFVRIDGQWQIANPDKFQFFSSASGTLVMNVKLDIADKYLLYYIRDVQSRDVGFYIQHPLQLLNTITLPTNEDLFLSAPDMREWAVKESGNTICILNSQGFVLPQDWDVLTDTISWSPSIPTYIVPPGDYTLTPL
notes: mRNA capping protein λ2 of mammalian reovirus serotype Dearing 3, native in the virus particle; 60 copies forming 12 pentameric turrets; also called capping enzyme λ2; turret
B2: capsid shell protein (CSP) λ1 (natural protein)
chain: MKRIPRKTKGKSSGKGNDSTERADDGSSQLRDKQNNKAGPATTEPGTSNREQYKARPGIASVQRATESAEMPMKNNDEGTPDKKGNTKGDLVNEHSEAKDEADEATKKQAKDTDKSKAQVTYSDTGINNANELSRSGNVDNEGGSNQKPMSTRIAEATSAIVSKHPARVGLPPTASSGHGYQCHVCSAVLFSPLDLDAHVASHGLHGNMTLTSSDIQRHITEFISSWQNHPIVQVSADVENKKTAQLLHADTPRLVTWDAGLCTSFKIVPIVPAQVPQDVLAYTFFTSSYAIQSPFPEAAVSRIVVHTRWASNVDFDRDSSVIMAPPTENNIHLFKQLLNTETLSVRGANPLMFRANVLHMLLEFVLDNLYLNRHTGFSQDHTPFTEGANLRSLPGPDAEKWYSIMYPTRMGTPNVSKICNFVASCVRNRVGRFDRAQMMNGAMSEWVDVFETSDALTVSIRGRWMARLARMNINPTEIEWALTECAQGYVTVTSPYAPIVNRLMPYRISNAERQISQIIRIMNIGNNATVIQPVLQDISVLLQRISPLQIDPTIISNTMSTVSESTTQTLSPASSILGKLRPSNSDFSSFRVALAGWLYNGVVTTVIDDSSYPKDGGSVTSLENLWDFFILALALPLTTDPCAPVKAFMTLANMMVGFETIPMDNQIYTQSRRASAFSTPHTWPRCFMNIQLISPIDAPILRQWAEIIHRYWPNPSQIRYGAPNVFGSANLFTPPEVLLLPIDHQPANVTTPTLDFTNELTNWRARVCELMKNLVDNQRYQPGWTQSLVSSMRGTLDKLKLIKSMTPMYLQQLAPVELAVIAPMLPFPPFQVPYVRLDRDRVPTMVGVTRQSRDTITQPALSLSTTNTTVGVPLALDARAITVALLSGKYPPDLVTNVWYADAIYPMYADTEVFSNLQRDMITCEAVQTLVTLVAQISETQYPVDRYLDWIPSLRASAATAATFAEWVNTSMKTAFDLSDMLLEPLLSGDPRMTQLAIQYQQYNGRTFNIIPEMPGSVIADCVQLTAEVFNHEYNLFGIARGDIIIGRVQSTHLWSPLAPPPDLVFDRDTPGVHIFGRDCRISFGMNGAAPMIRDETGLMVPFEGNWIFPLALWQMNTRYFNQQFDAWIKTGELRIRIEMGAYPYMLHYYDPRQYANAWNLTSAWLEEITPTSIPSVPFMVPISSDHDISSAPAVQYIISTEYNDRSLFCTNSSSPQTIAGPDKHIPVERYNILTNPDAPPTQIQLPEVVDLYNVVTRYAYETPPITAVVMGVP
notes: capsid shell protein λ1 of mammalian reovirus serotype Dearing 3, native in the virus particle; 120 copies in each particle as λ1A/λ1B dimers; five pairs (1-5) around each vertex; also called λ1A; λ1B
B3: membrane penetration protein µ1 (natural protein)
chain 1: MGNASSIVQTINVTGDGNVFKPSAETSSTAVPSLSLSPGMLN
chain 2: PGGVPWIAVGDETSVTSPGALRRMTSKDIPETAIINTDNSSGAVPSESALVPYIDEPLVVVTEHAITNFTKAEMALEFNREFLDKMRVLSVSPKYSDLLTYVDCYVGVSARQALNNFQKQVPVITPTRQTMYVDSIQAALKALEKWEIDLRVAQTLLPTNVPIGEVSCPMQSVVKLLDDQLPDDSLIRRYPKEAAVALAKRNGGIQWMDVSEGTVMNEAVNAVAASALAPSASAPPLEEKSKLTEQAMDLVTAAEPEIIASLAPVPAPVFAIPPKPADYNVRTLRIDEATWLRMIPKSMNTPFQIQVTDNTGTNWHLNLRGGTRVVNLDQIAPMRFVLDLGGKSYKETSWDPNGKKVGFIVFQSKIPFELWTAASQIGQATVVNYVQLYAEDSSFTAQSIIATTSLAYNYEPEQLNKTDPEMNYYLLATFIDSAAITPTNMTQPDVWDALLTMSPLSAGEVTVKGAVVSEVVPADLIGSYTPESLNASLPNDAARCMIDRASKIAEAIKIDDDAGPDEYSPNSVPIQGQLAISQLETGYGVRIFNPKGILSKIASRAMQAFIGDPSTIITQAAPVLSDKNNWIALAQGVKTSLRTKSLSAGVKTAVSKLSSSESIQNWTQGFLDKVSAHFPAPKPDCPTSGDSGESSNRRVKRDSYAGVVKRGYTR
modifications: N-myristoyl group at the amino terminus
notes: N-terminal (N-myristoyl) fragment of penetration protein μ1 of mammalian reovirus serotype Dearing 3, up to the autolytic cleavage site between N42 and P43; penetration protein μ1 of mammalian reovirus serotype Dearing 3 from the autolytic cleavage site between N42 and P43 onwards; 600 copies (200 trimers) in each particle; also called μ1; penetration protein μ1; copies: 3 + 3
B4: receptor binding protein σ1 (natural protein)
chain: MDPRLREEVVRLIIALTSDNGASLSKGLESRVSALEKTSQIHSDTILRITQGLDDANKRIIALEQSRDDLVASVSDAQLAISRLESSIGALQTVVNGLDSSVTQLGARVGQLETGLAELRVDHDNLVARVDTAERNIGSLTTELSTLTLRVTSIQADFESRISTLERTAVTSAGAPLSIRNNRMTMGLNDGLTLSGNNLAIRLPGNTGLNIQNGGLQFRFNTDQFQIVNNNLTLKTTVFDSINSRIGATEQSYVASAVTPLRLNSSTKVLDMLIDSSTLEINSSGQLTVRSTSPNLRYPIADVSGGIGMSPNYRFRQSMWIGIVSYSGSGLNWRVQVNSDIFIVDDYIHICLPAFDGFSIADGGDLSLNFVTGLLPPLLTGDTEPAFHNDVVTYGAQTVAIGLSSGGAPQYMSKNLWVEQWQDGVLRLRVEGGGSITHSNSKWPAMTVSYPRSFT
notes: 12 trimers in each particle; Seen only in the sub-particle reconstruction; also called σ1 trimer; σ1 spike

Target: the molecule itself
Assay: cryo-EM structure; asymmetric (C1) vertex sub-particle reconstructions of native MRV ISVP at 3.3 Å, asymmetric full ISVP at 4.3 Å; isolated virus particles in PBS pH 7.4; proteins assembled in the particle, in situ

Protein	stoichiometry N
B1	5
B2	2
B3	3
B4	3
